Key:
[1] = biological target: FLJ32028 with an HA epitope tag fused to the predicted C-terminal end of the protein (human) (UniProt Q6P9G4); test: flow cytometry on intact transfected 293-EBNA cells, streptavidin-PE detection
[2] = biological target: FLJ32028 with an HA epitope tag inserted at the predicted N-terminal end of the protein (human) (UniProt Q6P9G4); test: as above

A % of transfected GFP+ cells negative for HA [1] of 85% and a % of transfected GFP+ cells positive for HA [2] greater than 99% were found for “biotinylated Rat Anti-HA antibody (Roche)” in this work.
